Legend:
tPA [1] = molecular target: T1, tPA (Homo sapiens, UniProt P00750); test: ELISA: binding of tPA to 86-week glycated albumin-AGE preparations; conditions: albumin incubated 86 weeks; 10 mM εACA
T1 construct: purchased Boehringer-Ingelheim (Germany)
Procedure: Binding of the cross-B structure marker tPA to albumin-AGE was tested using an ELISA setup. […] Therefore, we used tPA binding to these two peptides as positive control. The 86-week glycated samples and controls were coated to Greiner microlon plates (catalogue #655092, Greiner, Frickenhausen, Germany). Wells were blocked with Superblock (Pierce, Rockford, Ill., USA). All subsequent incubations were performed in PBS/0.1% (v/v) Tween 20 for one hour at room temperature while shaking, with volumes of 50 μl per well. After incubation, wells were washed five times with 300 μl PBS/0.1% (v/v) Tween 20. Increasing concentrations of tPA were added in triplicate to coated wells as well as to control wells. During tPA incubations of 86-week incubated samples, at least a 123,000 times molar excess of ε-amino caproic acid (εACA, 10 mM) was added to the solutions. εACA is a lysine analogue and is used to avoid potential binding of tPA to albumin via its kringle 2 domain.^50 Monoclonal antibody 374b (American Diagnostica, Instrumentation laboratory, Breda, The Netherlands) and, subsequently, RAMPO (Dako diagnostics, Glostrup, Denmark) was added to the wells at a concentration of 0.3 μg ml^−1. Bound peroxidase-labeled antibody was visualized using 100 μl of a solution containing 8 mg ortho-phenylene-diamine in 20 ml 50 mM citric acid/100 mM Na2HPO4 pH 5.0 with 0.0175% (v/v) H2O2. Staining was stopped upon adding 50 μl of a 2 M H2SO4 solution. Absorbance was read at 490 nm on a Vmax kinetic microplate reader (Molecular Devices, CA, USA). Background signals from non-coated control wells were substracted from corresponding coated wells.

[2] = Circular dichroism: percentage β-sheet (k2d software); format: physicochemical
Procedure: UV circular dichroism (CD) spectra of peptide and protein solutions ([…] in H2O) were measured on a JASCO J-810 CD spectropolarimeter (Tokyo, Japan). Averaged absorption spectra of five or ten single measurements from 190-240 nm or from 190-250 nm, for fibrin peptides 85, 86, 87 or for albumin, glycated albumin and human Aβ (16-22), respectively, are recorded. The CD spectrum of Aβ (16-22) was measured as a positive control. Aβ (16-22) readily adopts amyloid fiber conformation with cross-β structure when incubated in H2O^45. For albumin and Aβ (16-22), relative percentage of the secondary structure elements present was estimated using k2d software.^48

tPA [3] = molecular target: T1, tPA; test: ELISA: binding of tPA to glycated albumin and Hb; conditions: g6p-glycated protein immobilized
Procedure: Binding of tPA to albumin-g6p (four-week and 23-week incubations), albumin-glyceraldehyde, control albumin, human Hb-g6p (ten-week incubation), Hb control, or to Aβ (1-40) was tested using an enzyme-linked immunosorbent assay (ELISA) set-up. Albumin-g6p and control albumin (2.5 μg ml^−1 in coat buffer, 50 mM Na2CO3/NaHCO3 pH 9.6, 0.02% m/v NaN3, 50 μl/well) were immobilized for one hour at room temperature in 96-well protein Immobilizer plates (Exiqon, Vedbaek, Denmark). Aβ (1-40) (10 μg ml^−1 in coat buffer) was immobilized for 75 minutes at room temperature in a 96-well peptide Immobilizer plate (Exiqon, Vedbaek, Denmark). Control wells were incubated with coat buffer only. After a wash step with 200 μl of PBS/0.1% v/v Tween 20, plates were blocked with 300 μl of PBS/1% v/v Tween 20, for two hours at room temperature while shaking. All subsequent incubations were performed in PBS/0.1% v/v Tween 20 for one hour at room temperature while shaking, with volumes of 50 μl per well. After each incubation, wells were washed five times with 200 μl of PBS/0.1% v/v Tween 20. Increasing amounts of f.l. tPA or K2-P tPA was added in triplicate to coated wells and to control wells. […] Absorbance was read at 490 nm on a Vmax kinetic microplate reader (Molecular Devices, Sunnyvale, Calif., USA).

[4] = molecular target: T2, tPA-mediated plasminogen activation (Homo sapiens, UniProt P00750); test: Plasminogen activation assay; format: biochemical; conditions: 50 μg ml−1 CpB, 5 μM Aβ
T2 construct: purchased Boehringer-Ingelheim (Germany)
T2 sequence (P00750 36-562): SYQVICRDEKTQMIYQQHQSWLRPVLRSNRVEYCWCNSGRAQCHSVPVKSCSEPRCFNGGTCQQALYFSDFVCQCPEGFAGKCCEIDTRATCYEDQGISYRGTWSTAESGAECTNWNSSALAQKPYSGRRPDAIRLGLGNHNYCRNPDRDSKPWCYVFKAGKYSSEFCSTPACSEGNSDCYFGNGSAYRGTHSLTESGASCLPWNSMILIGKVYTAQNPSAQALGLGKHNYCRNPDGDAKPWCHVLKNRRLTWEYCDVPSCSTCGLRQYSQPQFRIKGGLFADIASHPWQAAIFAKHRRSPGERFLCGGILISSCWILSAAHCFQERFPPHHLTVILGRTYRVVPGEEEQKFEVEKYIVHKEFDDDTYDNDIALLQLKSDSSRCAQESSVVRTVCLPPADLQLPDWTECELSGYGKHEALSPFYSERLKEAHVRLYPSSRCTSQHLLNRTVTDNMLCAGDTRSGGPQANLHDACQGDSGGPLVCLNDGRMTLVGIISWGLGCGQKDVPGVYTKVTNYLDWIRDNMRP
Procedure: Plasminogen (200 μg ml^−1) was incubated with tPA (200 pM) in the presence or the absence of a co-factor (5 μM of either endostatin, Aβ (1-40), or one the fibrin-derived peptides 85, 86 and 87). At the indicated time intervals, samples were taken and the reaction was stopped in a buffer containing 5 mM EDTA and 150 mM εACA. After collection of the samples, a chromogenic plasmin substrate S-2251 was added and plasmin activity was determined kinetically in a spectrophotometer at 37° C.

[5] = test system: differentiated N1E-115 cells; test: N1E-115 cell detachment (methylene blue staining); format: cell-based, mouse; conditions: Aβ 10 μM, plasminogen 20 μg ml−1, CpB 1 μM, 24 hours
Procedure: FIG. 4 is a set of graphs illustrating stimulation of tPA-mediated plasmin formation by Aβ and synergistic stimulation of cell detachment by plasminogen and Aβ. Panel A depicts that plasminogen (200 μg/ml) and tPA (200 pM) were incubated with Aβ (5 μM) or control buffer. Samples were taken from the reaction mixture at the indicated periods of time and plasmin activity was measured by conversion of the chromogenic plasmin substrate S-2251 at 405 nm. […] After 48 hours, the dead cells were washed away and the remaining adherent cells were stained with methylene blue. Plasmin cannot prevent Aβ-induced cell detachment. Panel C illustrates that N1E-115 cells were differentiated and received the indicated concentrations of plasminogen in the presence or absence of 10 μM Aβ. After 24 hours, cell detachment was assessed. […] Panel D is an immunoblot analysis of plasmin formation and laminin degradation. Differentiated N1E-115 cells were treated with or without Aβ (10 μM) in the absence or presence of added plasminogen. Addition of Aβ results in the formation of plasmin (bottom panel) and in degradation of laminin (top panel).
(§1) FIG. 5 depicts graphs illustrating that carboxypeptidase B inhibits Aβ-stimulated tPA-mediated plasmin formation and cell detachment. […] Samples were taken from the reaction mixture at the indicated periods of time and plasmin activity was measured by conversion of the chromogenic plasmin substrate S-2251 at 405 nm. The reaction was performed in the absence or the presence of 50 μg ml^−1 carboxypeptidase B (CpB) and in the absence or presence of 3.5 μM carboxypeptidase inhibitor (CPI). CpB greatly attenuates A-stimulated plasmin formation. […] After 24 hours, the cells were photographed. Panel C illustrates that, subsequently, the cells were washed once with PBS and the remaining cells were quantified as percentage-adhered cells by methylene blue staining. In Panel D, the cells were treated as in Panels B and C and medium and cell fractions were collected and analyzed by Western blot using an anti-plasmin(ogen) antibody. Aβ stimulates plasmin formation that is inhibited by CpB.
N1E-115 mouse neuroblastoma cells were routinely cultured in DMEM containing 5% FCS, supplemented with antibiotics. Cells were differentiated into post-mitotic neurons.^52 The cells were exposed to Aβ (50 μg ml^−1) for 24 hours in the presence or absence of 20 μg ml^−1 plasminogen in the presence or absence of 50 μg ml^−1 CpB. Cells were photographed, counted and lysed by the addition of 4× sample buffer (250 mM Tris pH 6.8, 8% SDS, 10% glycerol, 100 mM DTT, 0.01% w/v bromophenol blue) to the medium. The lysate, containing both adherent and floating (presumably dying and/or dead) cells, as well as the culture medium, were analyzed for the presence of plasminogen and plasmin, as well as for laminin, by Western blot analysis using specific antibodies against plasminogen (MoAb 3642, American Diagnostics), laminin (PoAb L9393, Sigma).

[6] = test system: Aβ-stimulated plasmin formation in N1E-115 cells; test: Western blot of plasmin formation in N1E-115 cultures; format: cell-based, mouse; conditions: co-incubation with CpB
Procedure: as §1
N1E-115 mouse neuroblastoma cells were routinely cultured in DMEM containing 5% FCS, supplemented with antibiotics. […] Cells were photographed, counted and lysed by the addition of 4× sample buffer (250 mM Tris pH 6.8, 8% SDS, 10% glycerol, 100 mM DTT, 0.01% w/v bromophenol blue) to the medium. […]

Aβ fibrils = molecular target: T3, Aβ fibrils (Homo sapiens, UniProt P05067); test: Amyloid pull-down with insoluble Aβ fibers; format: binding; conditions: conditioned BHK medium
T3 construct: Peptide Aβ (1-40), containing amino acids as present in the described human Alzheimer peptide; purchased Pepscan, Inc. (The Netherlands) or peptide synthesis facility at the Netherlands Cancer Institute; host or cells: synthetic peptide
T3 sequence (P05067 672-711): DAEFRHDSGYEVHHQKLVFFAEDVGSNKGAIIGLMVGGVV
Procedure: Conditioned medium of BHK cells expressing GST-tagged tPA F, F-EGF, EGF, K1, F-EGF-K1, FXII F, HGFa F, Fn F4, Fn F5, Fn F4-5 and GST was used for amyloid binding assays. At first, constructs were adjusted to approximately equal concentration using Western blots. Qualitative binding of the recombinant fragments were evaluated using a “pull-down” assay. To this end, the recombinantly made fragments were incubated with either Aβ or IAPP fibrils. Since these peptides form insoluble fibers, unbound proteins can be easily removed from the fibers following centrifugation. The pellets containing the bound fragments were subsequently washed several times. Bound fragments were solubilized in SDS-sample buffer and analyzed by PAGE, as were unbound proteins in the supernatant fraction and starting material. The gels were analyzed using immunoblotting analysis with the anti-GST antibody Z-5.

mΔIAPP = molecular target: T4, mΔIAPP (Mus musculus, UniProt P12968); test: Amyloid ELISA with tPA F-EGF-GST: non-amyloid control; format: binding
T4 construct: purchased Pepscan, Inc. or peptide synthesis facility of the Netherlands Cancer Institute; host or cells: chemical synthesis
Procedure: In order to define the affinity of the purified tPA F-EGF-GST recombinant protein, ELISAs were performed with immobilized amyloid (poly)peptides and non-amyloid control ΔmIAPP. Twenty-five μg ml^−1 of Aβ, FP13, IAPP or ΔmIAPP was immobilized on Exiqon peptide immobilizer plates. A concentration series of tPA F-EGF-GST in the presence of excess εACA was added to the wells and binding was assayed using anti-GST antibody Z-5. As a control, GST (Sigma-Aldrich, St. Louis, Mo., USA, catalogue #G-5663) was used at the same concentrations.

[7] = test system: amyloid deposits in human brain inflicted by AD; test: Immunohistochemistry: binding of tPA F-EGF to human AD brain; conditions: 7 nM construct; Congo red fluorescence to locate amyloid
Procedure: Paraffin brain sections of a human inflicted with AD was a kind gift of Prof. Slootweg (Dept. of Pathology, UMC Utrecht). Sections were deparaffinized in a series of xylene-ethanol. Endogenous peroxidases were blocked with methanol/1.5% H2O2 for 15 minutes. After rinsing in H2O, sections were incubated with undiluted formic acid for ten minutes, followed by incubation in PBS for five minutes. Sections were blocked in 10% HPS in PBS for 15 minutes. Sections were exposed for two hours with 7 nM of tPA F-EGF-GST or GST in PBS/0.3% BSA. After three wash steps with PBS, sections were overlayed with 200 ng ml^−1 anti-GST antibody Z-5, for one hour. After washing, ready-to-use goat anti-rabbit Powervision (Immunologic, Duiven, The Netherlands, catalogue #DPVR-55AP) was applied and incubated for one hour. After washing, sections were stained for ten minutes with 3,3′-diamino benzidine (Sigma-Aldrich, St Louis, Mo., USA, catalogue #D-5905), followed by hematoxylin staining for ten seconds. After washing with H2O, sections were incubated with Congo red according to the manufacturer's recommendations (Sigma Diagnostics, St Louis, Mo., USA). […] Analysis of sections was performed on a Leica DMIRBE fluorescence microscope (Rijswijk, The Netherlands). Fluorescence of Congo red was analyzed using an excitation wavelength of 596 nm and an emission wavelength of 620 nm.

T1 sequence (P00750 36-562): as the sequence (P00750 36-562) above

Albumin-g6p
binding of amyloid-specific serine protease tPA (tPA [1]): bound specifically
β-sheet (%) ([2]; incubation time 2 weeks): 0%
β-sheet (%) ([2]; incubation time 4 weeks): 7%
β-sheet (%) ([2]; incubation time 23 weeks): 19%
tPA binding (tPA [3]): high-affinity tPA binding

B1: CpB: porcine pancreas carboxypeptidase B from Roche (protein, UniProt P09955 111-416, looked up)
Carboxypeptidase B: TTGHSYEKYNNWETIEAWTKQVTSENPDLISRTAIGTTFLGNNIYLLKVGKPGPNKPAIFMDCGFHAREWISHAFCQWFVREAVLTYGYESHMTEFLNKLDFYVLPVLNIDGYIYTWTKNRMWRKTRSTNAGTTCIGTDPNRNFDAGWCTTGASTDPCDETYCGSAAESEKETKALADFIRNNLSSIKAYLTIHSYSQMILYPYSYDYKLPENNAELNNLAKAAVKELATLYGTKYTYGPGATTIYPAAGGSDDWAYDQGIKYSFTFELRDKGRYGFILPESQIQATCEETMLAIKYVTNYVLGHL
Aβ-stimulated generation of plasmin in the presence of CpB [4]: greatly diminished
cell detachment induced by plasminogen and Aβ [5]: completely prevented
Aβ-stimulated plasmin formation in the medium and on the cells [6]: complete inhibition

B2: tPA F-EGF-GST: tPA F-EGF domains with C-terminal GST tag, expressed in BHK cells and purified (protein)
chain: SYQVICRDEKTQMIYQQHQSWLRPVLRSNRVEYCWCNSGRAQCHSVPVKSCSEPRCFNGGTCQQALYFSDFVCQCPEGFAGKCCEID
modifications: left off: small tags and cut ends; a dimerising Fc or GST
notes: tPA F-EGF domains with C-terminal GST tag, expressed in BHK cells and purified
binding to Aβ fibers (pull-down, Western blot) (Aβ fibrils): Efficient binding
binding to non-amyloid mΔIAPP (mΔIAPP): No binding
binding to amyloid deposits in AD brain sections [7]: positive for tPA F-EGF-GST binding
